# Measured values published in article doi:10.1101/2022.01.30.478305 (bioRxiv, 2022).
# Biological target: SARS-CoV-2 RBD-his (SARS-CoV-2, UniProt P0DTC2)
# Test: ELISA
binder,measurement,value
"16L9 (antibody, V domains shown) VH: EVQLVESGGGLIQPGGSLRLSCAASGFTVSSNYMSWVRQAPGKGLEWVSVIYSGGSTYYADSVKGRFTISRDNSENTLYLQMNSLRAEDTAVYYCARGEIQPYYYYGMDVWGQGTTVTVSS VL: QSVLTQPPSASGSPGQSVTISCTGTSSDFGGYNSVSWYQQHPGKAPKLMIYEVSKRPSGVPDRFSGSKSGNTASLTVSGLQAEDEADYYCSSYAGSNNFDVFGTGTKVTVL",binding result,binds
